Results reported in paper PMC5349596.

Biological target: Asp74 (UniProt position 74, WARYIDWVITT)
Assay: UV-vis
Details: room temperature (approx. 25 °C); not stated (no added salt; low-millimolar buffer mixture; pH adjusted with concentrated H2SO4); 0.89 mM citric acid, 0.89 mM MES, 1.1 mM TES, 0.78 mM TAPS, 1.1 mM CHES and 0.33 mM CAPS; Folded, retinal-bound (nearly 100% all-trans), detergent-solubilised; dark or light adaptation during the titration not stated

In the case of “Rubrobacter xylanophilus rhodopsin (RxR) (Rubrobacter xylanophilus DSM 9941)”, the pKa is reported as 1.3 ± 0.17.
